This note sets out measurements from patent US20100169988A1 (published 2010).

The target of test [1] is T1, APP-TAP-AICD (human, UniProt P05067 18-695). As to the kind of experiment: streptavidin purification of APP-TAP-AICD from brain homogenate; iTRAQ 116/114, transgenic mouse 75 vs control mouse 72; MALDI-TOF/TOF.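 Note: relative protein abundance in the transgenic versus control pull-down, limited to proteins with high quality scores and above-average enrichment, without full normalization across the whole measurement.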
Source text: Shown are all proteins that have high quality scores and are enriched above average in the m75 sample. Purified bait protein is given underlined. Other already known interaction partners of AICD or putatively biologically relevant proteins are given in bold. As full normalization over the entire measurement was not possible through the GPS explorer software suite, this conservative estimate had to be taken for determining the enriched vs. the non-enriched proteins. […] Ranking is in order of abundance ratio.
The target of test [2] is T1, APP-TAP-AICD. As to the kind of experiment: streptavidin purification of APP-TAP-AICD from brain homogenate; LTQ-FT semiquantitative method, transgenic mouse 75 vs control mouse 72.

B1: Tubulin beta-4 chain (other, mouse, UniProt Q9D6F9 1-444, looked up)
chain: MREIVHLQAGQCGNQIGAKFWEVISDEHGIDPTGTYHGDSDLQLERINVYYNEATGGNYVPRAVLVDLEPGTMDSVRSGPFGQIFRPDNFVFGQSGAGNNWAKGHYTEGAELVDAVLDVVRKEAESCDCLQGFQLTHSLGGGTGSGMGTLLISKIREEFPDRIMNTFSVVPSPKVSDTVVEPYNATLSVHQLVENTDETYCIDNEALYDICFRTLKLTTPTYGDLNHLVSATMSGVTTCLRFPGQLNADLRKLAVNMVPFPRLHFFMPGFAPLTSRGSQQYRALTVPELTQQMFDAKNMMAACDPRHGRYLTVAAVFRGRMSMKEVDEQMLSVQSKNSSYFVEWIPNNVKTAVCDIPPRGLKMAATFIGNSTAIQELFKRISEQFTAMFRRKAFLHWYTGEGMDEMEFTEAESNMNDLVSEYQQYQDATAEEGEFEEEAEEEVA
notes: also called TBB4_MOUSE
For the molecule B1, in the test with APP-TAP-AICD [1], the iTRAQ ratio was determined as 3.22.

B2: Excitatory amino acid transporter 1 (Sodium-dependent glutamate/aspartate transporter) (GLAST) (other, mouse, UniProt P56564 1-543, looked up)
chain: MTKSNGEEPRMGGRMERLQQGVRKRTLLAKKKVQSLTKEDVKSYLFRNAFVLLTVTAVIVGTILGFALRPYKMSYREVKYFSFPGELLMRMLQMLVLPLIISSLVTGMAALDSKASGKMGMRAVVYYMTTTIIAVVIGIIIVIIIHPGKGTKENMYREGKIVQVTAADAFLDLIRNMFPPNLVEACFKQFKTSYEKRSFKVPIQSNETLLGAVINNVSEAMETLTRIREEMVPVPGSVNGVNALGLVVFSMCFGFVIGNMKEQGQALREFFDSLNEAIMRLVAVIMWYAPLGILFLIAGKIVEMEDMGVIGGQLAMYTVTVIVGLLIHAVIVLPLLYFLVTRKNPWVFIGGLLQALITALGTSSSSATLPITFKCLEENNGVDKRITRFVLPVGATINMDGTALYEALAAIFIAQVNNFDLNFGQIITISITATAASIGAAGIPQAGLVTMVIVLTSVGLPTDDITLIIAVDWFLDRLRTTTNVLGDSLGAGIVEHLSRHELKNRDVEMGNSVIEENEMKKPYQLIAQDNEPEKPVADSETKM
notes: also called EAA1_MOUSE
For the molecule B2, the “probability that this protein is enriched” value with APP-TAP-AICD [2] came out at 1.

B3: ATP synthase alpha chain; mitochondrial precursor (enzyme, mouse, UniProt Q03265 44-553, looked up)
chain: QKTGTAEMSSILEERILGADTSVDLEETGRVLSIGDGIARVHGLRNVQAEEMVEFSSGLKGMSLNLEPDNVGVVVFGNDKLIKEGDVVKRTGAIVDVPVGEELLGRVVDALGNAIDGKGPIGSKTRRRVGLKAPGIIPRISVREPMQTGIKAVDSLVPIGRGQRELIIGDRQTGKTSIAIDTIINQKRFNDGTDEKKKLYCIYVAIGQKRSTVAQLVKRLTDADAMKYTIVVSATASDAAPLQYLAPYSGCSMGEYFRDNGKHALIIYDDLSKQAVAYRQMSLLLRRPPGREAYPGDVFYLHSRLLERAAKMNDSFGGGSLTALPVIETQAGDVSAYIPTNVISITDGQIFLETELFYKGIRPAINVGLSVSRVGSAAQTRAMKQVAGTMKLELAQYREVAAFAQFGSDLDAATQQLLSRGVRLTELLKQGQYSPMAIEEQVAVIYAGVRGYLDKLEPSKITKFENAFLSHVISQHQSLLGNIRSDGKISEQSDAKLKEIVTNFLAGFEP
As for B3, in the test with APP-TAP-AICD [1], the iTRAQ ratio worked out at 3.39.

B4: MKIAA0820 protein (Fragment) (other, mouse, UniProt Q8BZ98 1-863, looked up)
chain: MGNREMEELIPLVNRLQDAFSALGQSCLLELPQIAVVGGQSAGKSSVLENFVGRDFLPRGSGIVTRRPLVLQLVTSKAEYAEFLHCKGKKFTDFDEVRHEIEAETDRVTGMNKGISSIPINLRVYSPHVLNLTLIDLPGITKVPVGDQPPDIEYQIRDMIMQFITRENCLILAVTPANTDLANSDALKLAKEVDPQGLRTIGVITKLDLMDEGTDARDVLENKLLPLRRGYVGVVNRSQKDIDGKKDIKAAMLAERKFFLSHPAYRHIADRMGTPHLQKVLNQQLTNHIRDTLPNFRNKLQGQLLSIEHEVEAFKNFKPEDPTRKTKALLQMVQQFAVDFEKRIEGSGDQVDTLELSGGAKINRIFHERFPFEIVKMEFNEKELRREISYAIKNIHGIRTGLFTPDMAFEAIVKKQIVKLKGPSLKSVDLVMQELINTVKKCTKRLANFPRLCEETERIVANHIREREGKTKDQVLLLIDIQVSYINTNHEDFIGFANAQQRSSQVHKKSTIGNQVIRKGWLTVSNIGIMKGGSKGYWFVLTAESLSWYKDDEEKEKKYMLPLDNLKVRDVEKGFMSSKHVFALFNTEQRNVYKDYRFLELACDSQEDVDSWKASLLRAGVYPDKSVGSNKTENDENGQAENFSMDPQLERQVETIRNLVDSYMSIINKCIRDLIPKTIMHLMINNVKDFINSELLAQLYSSEDQNTLMEESAEQAQRRDEMLRMYQALKEALAIIGDINTATVSTPAPPPVDDSWLQHSRRSPPPSPTTQRRLTISAPLPRPTSGRGPAPAIPSPGPHSGAPPVPFRPGPLPPFPNSSDSFGAPPQVPSRPTRAPPSVPSRRPPPSPTRPTIIRPLESSLLD
notes: also called Q80TR2_MOUSE
In the case of B4, the “probability that this protein is enriched” value in the test with APP-TAP-AICD [2] turned out to be 1.
